Test results from patent publication US11306156.

Columns and labels:
[1] = target: tissue factor (TF) antigen (UniProt P13726); experiment: SPR (ProteOn XPR36): His-tagged Fab captured on anti-penta-His surface, TF as analyte, 1:1 fit
[2] = target: tissue factor (TF) antigen (UniProt P13726); experiment: SPR, Fab captured by anti-His, TF as analyte
[3] = target: tissue factor (TF) antigen (UniProt P13726); experiment: SPR; reference wild-type D3H44 Fab
[4] = target: tissue factor (TF) antigen (UniProt P13726); experiment: SPR, Fab captured on anti-penta His, TF injected, 1:1 fit
[5] = target: tissue factor (TF) antigen (UniProt P13726); experiment: SPR, Fab captured on anti-penta-His, TF as analyte, 1:1 fit
[6] = target: tissue factor (TF) antigen (UniProt P13726); experiment: SPR (ProteOn), Fab captured on anti-penta His, TF as analyte, 1:1 fit
[7] = target: tissue factor (TF) antigen (UniProt P13726); experiment: SPR; against wild-type D3H44 Fab

Sequence of tissue factor (TF) antigen (P13726 33-251 limits assumed): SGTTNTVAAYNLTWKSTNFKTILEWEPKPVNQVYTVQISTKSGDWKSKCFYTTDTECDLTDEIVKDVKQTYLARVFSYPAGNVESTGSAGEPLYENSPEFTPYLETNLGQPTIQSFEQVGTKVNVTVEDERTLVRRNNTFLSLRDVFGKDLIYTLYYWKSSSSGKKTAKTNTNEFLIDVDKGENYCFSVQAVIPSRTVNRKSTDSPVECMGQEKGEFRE

## D3H44 H1L1 Fab heterodimer of LCCA set 9060 (H1 A139W_L143E_K145T_Q179E; L1 F116A_Q124R_L135V_T178R)
[1]
  Change in median values of KD of h1|1 Fab heterodimer compared to wild type (-(log(KD design)-log(KD wt))): 0.04 log units
  Kd: 0.14 nM

## D3H44 Fab heterodimer, heavy L124R_Q179K / light V133G_S176D_T178E_T180E
[2]
  Kd: 0.23 nM
[3]
  Change in KD of h2|2 Fab heterodimer with respect to wild type (-(log(KD design) - log(KD wt))): -0.16

## D3H44 Fab heterodimer, H L124R_Q179K / L V133G_S176D_T178E_T180E
[3]
  Change in KD with respect to wild type (-(log(KD design) - log(KD wt))): -0.16
[4]
  Kd: 0.23 nM

## D3H44 Fab heterodimer, H L124E_L143E_K145T / L Q124K_V133G_Q160K_S176R
[5]
  Change in KD with respect to wild type (-(log(KD design) - log(KD wt))): -0.12
  Kd: 0.2 nM
[3]
  Change in KD with respect to wild type (-(log(KD design) - log(KD wt))): -0.12
[4]
  Kd: 0.2 nM

## D3H44 Fab heterodimer, heavy L124E_L143D_K145M / light Q124K_V133G_S176R_T178K
[2]
  Kd: 0.22 nM
[3]
  Change in KD of h1|1 Fab heterodimer with respect to wild type (-(log(KD design) - log(KD wt))): -0.15

## D3H44 Fab heterodimer, heavy L124R_Q179K / light Q124E_V133G_S176D_T178E_T180E
[2]
  Kd: 0.22 nM
[3]
  Change in KD of h2|2 Fab heterodimer with respect to wild type (-(log(KD design) - log(KD wt))): -0.15

## D3H44 H1L1 Fab heterodimer of LCCA set 9066 (H1 F122C_L124E; L1 Q124C_V133G_S176R)
[1]
  Change in median values of KD of h1|1 Fab heterodimer compared to wild type (-(log(KD design)-log(KD wt))): -0.04 log units
  Kd: 0.17 nM

## D3H44 Fab heterodimer, heavy L124E_L143D_K145T / light Q124K_V133G_S176R_T178R
[2]
  Kd: 0.16 nM
[3]
  Change in KD of h1|1 Fab heterodimer with respect to wild type (-(log(KD design) - log(KD wt))): -0.02

## D3H44 Fab heterodimer, heavy L124R_S186K / light V133G_S176D_T178D_T180E
[2]
  Kd: 0.18 nM
[3]
  Change in KD of h2|2 Fab heterodimer with respect to wild type (-(log(KD design) - log(KD wt))): -0.07

## D3H44 Fab heterodimer, heavy L124E_L143D_K145M / light Q124K_V133G_Q160K_S176R
[2]
  Kd: 0.27 nM
[3]
  Change in KD of h1|1 Fab heterodimer with respect to wild type (-(log(KD design) - log(KD wt))): -0.24

## D3H44 Fab heterodimer, heavy L124R_S186R / light V133G_S176D_T178E_T180E
[2]
  Kd: 0.22 nM
[3]
  Change in KD of h2|2 Fab heterodimer with respect to wild type (-(log(KD design) - log(KD wt))): -0.15

## D3H44 H1L1 Fab heterodimer of LCCA sets 9786 and 9785 (H1 Q179K; L1 Q124E_T178E_T180E)
[1]
  Change in median values of KD of h1|1 Fab heterodimer compared to wild type (-(log(KD design)-log(KD wt))): 0.1 log units
  Kd: 0.13 nM

## D3H44 H1L1 Fab heterodimer of LCCA sets 9101 and 9100 (H1 L124A_Q179K; L1 Q124E_V133W_T180E)
[1]
  Change in median values of KD of h1|1 Fab heterodimer compared to wild type (-(log(KD design)-log(KD wt))): 0.1 log units
  Kd: 0.12 nM

## D3H44 Fab heterodimer, heavy L124R_S186R / light Q124E_V133G_S176D_T178D_T180E
[2]
  Kd: 0.26 nM
[3]
  Change in KD of h2|2 Fab heterodimer with respect to wild type (-(log(KD design) - log(KD wt))): -0.21

## D3H44 Fab heterodimer, H L124R_S186R / L V133G_S176D_T178D_T180E
[5]
  Change in KD with respect to wild type (-(log(KD design) - log(KD wt))): -0.04
  Kd: 0.17 nM
[3]
  Change in KD with respect to wild type (-(log(KD design) - log(KD wt))): -0.04
[4]
  Kd: 0.17 nM

## D3H44 Fab heterodimer, H L124R_S186R / L Q124E_V133G_S176D_T178D_T180E
[5]
  Change in KD with respect to wild type (-(log(KD design) - log(KD wt))): -0.21
  Kd: 0.26 nM
[3]
  Change in KD with respect to wild type (-(log(KD design) - log(KD wt))): -0.21
[4]
  Kd: 0.26 nM

## D3H44 H1L1 Fab heterodimer of LCCA sets 9571 and 9572 (H1 L124W_L143F_K145T_Q179E; L1 S131K_V133A_S176T_T178L)
[1]
  Change in median values of KD of h1|1 Fab heterodimer compared to wild type (-(log(KD design)-log(KD wt))): -0.21 log units
  Kd: 0.26 nM

## D3H44 Fab heterodimer, H L124R_S186K / L V133G_S176D_T178E_T180E
[5]
  Change in KD with respect to wild type (-(log(KD design) - log(KD wt))): -0.17
  Kd: 0.23 nM
[3]
  Change in KD with respect to wild type (-(log(KD design) - log(KD wt))): -0.17
[4]
  Kd: 0.23 nM

## D3H44 Fab heterodimer, H L124R_S186K / L V133G_S176D_T178D_T180E
[5]
  Change in KD with respect to wild type (-(log(KD design) - log(KD wt))): -0.07
  Kd: 0.18 nM
[3]
  Change in KD with respect to wild type (-(log(KD design) - log(KD wt))): -0.07
[4]
  Kd: 0.18 nM

## D3H44 Fab heterodimer, H1 L143E_K145T_Q179D / L1 Q124R_Q160K_T178R (H1L1 of LCCA set 9620)
[6]
  Kd: 0.06 nM
[7]
  Change in KD with respect to wild type (-(log(KD design) - log(KD wt))): 0.39

## D3H44 Fab heterodimer, H1 L124R_D146N_Q179K / L1 Q124E_V133G_S176D_T178E_T180E (H1L1 of LCCA set 9351)
[6]
  Kd: 0.2 nM
[7]
  Change in KD with respect to wild type (-(log(KD design) - log(KD wt))): -0.1

## D3H44 Fab heterodimer, H L124R_D146N_Q179K / L Q124E_V133G_S176D_T178E_T180E
[5]
  Change in KD with respect to wild type (-(log(KD design) - log(KD wt))): -0.1
  Kd: 0.2 nM
[3]
  Change in KD with respect to wild type (-(log(KD design) - log(KD wt))): -0.1
[4]
  Kd: 0.2 nM

## D3H44 Fab heterodimer, H1 A139G_F174V_V190A / L1 S131T_L135F_S176F_T178F (H1L1 of LCCA set 9051)
[6]
  Kd: 0.14 nM
[7]
  Change in KD with respect to wild type (-(log(KD design) - log(KD wt))): 0.06

## D3H44 Fab heterodimer, heavy L124E_L143E_K145M / light Q124K_V133G_Q160K_S176R
[2]
  Kd: 0.28 nM
[3]
  Change in KD of h1|1 Fab heterodimer with respect to wild type (-(log(KD design) - log(KD wt))): -0.26

## D3H44 H1L1 Fab heterodimer of LCCA set 9082 (H1 K145T_Q179E; L1 S131K)
[1]
  Change in median values of KD of h1|1 Fab heterodimer compared to wild type (-(log(KD design)-log(KD wt))): -0.01 log units
  Kd: 0.16 nM

## D3H44 Fab heterodimer, H L124R_D146N_Q179K / L V133G_S176D_T178E_T180E
[3]
  Change in KD with respect to wild type (-(log(KD design) - log(KD wt))): -0.01
[4]
  Kd: 0.16 nM

## D3H44 Fab heterodimer, H1 Q179K / L1 Q124E_T180E (H1L1 of LCCA sets 9796 and 9789)
[6]
  Kd: 0.11 nM
[7]
  Change in KD with respect to wild type (-(log(KD design) - log(KD wt))): 0.16

## D3H44 Fab heterodimer, H1 Q179K / L1 Q124E_T178E (H1L1 of LCCA set 9783)
[6]
  Kd: 0.14 nM
[7]
  Change in KD with respect to wild type (-(log(KD design) - log(KD wt))): 0.05

## D3H44 Fab heterodimer, H L124R_D146N_Q179K / L V133G_Q160E_S176D_T180E
[3]
  Change in KD with respect to wild type (-(log(KD design) - log(KD wt))): -0.04
[4]
  Kd: 0.17 nM

## D3H44 Fab heterodimer, heavy L124E_L143D_K145T / light Q124K_V133G_S176R_T178K
[2]
  Kd: 0.19 nM
[3]
  Change in KD of h1|1 Fab heterodimer with respect to wild type (-(log(KD design) - log(KD wt))): -0.08

## D3H44 Fab heterodimer, heavy L124E_L143E_K145M / light Q124K_V133G_S176R_T178R
[2]
  Kd: 0.31 nM
[3]
  Change in KD of h1|1 Fab heterodimer with respect to wild type (-(log(KD design) - log(KD wt))): -0.29

## D3H44 Fab heterodimer, H L124R_Q179K / L Q124E_V133G_S176D_T178E_T180E
[5]
  Change in KD with respect to wild type (-(log(KD design) - log(KD wt))): -0.15
  Kd: 0.22 nM
[3]
  Change in KD with respect to wild type (-(log(KD design) - log(KD wt))): -0.15
[4]
  Kd: 0.22 nM

## D3H44 Fab heterodimer, H1 L124E_H172T / L1 V133G_N137K_S174R_S176R (H1L1 of LCCA set 9120)
[6]
  Kd: 0.13 nM
[7]
  Change in KD with respect to wild type (-(log(KD design) - log(KD wt))): 0.08

## D3H44 Fab heterodimer, heavy L124R_S186K / light Q124E_V133G_S176D_T178D_T180E
[2]
  Kd: 0.26 nM
[3]
  Change in KD of h2|2 Fab heterodimer with respect to wild type (-(log(KD design) - log(KD wt))): -0.23

## D3H44 Fab heterodimer, heavy L124E_L143E_K145T / light Q124K_V133G_Q160K_S176R
[2]
  Kd: 0.2 nM
[3]
  Change in KD of h1|1 Fab heterodimer with respect to wild type (-(log(KD design) - log(KD wt))): -0.12

## D3H44 Fab heterodimer, heavy L124E_L143E_K145M / light Q124K_V133G_S176R_T178K
[2]
  Kd: 0.24 nM
[3]
  Change in KD of h1|1 Fab heterodimer with respect to wild type (-(log(KD design) - log(KD wt))): -0.19

## D3H44 Fab heterodimer, H1 L124E_L143E_K145M / L1 Q124K_V133G_S176R_T178K (H1L1 of LCCA sets 9260 and 9263)
[6]
  Kd: 0.24 nM
[7]
  Change in KD with respect to wild type (-(log(KD design) - log(KD wt))): -0.19

## D3H44 Fab heterodimer, H L124R_Q179K / L V133G_Q160E_S176D_T180E
[3]
  Change in KD with respect to wild type (-(log(KD design) - log(KD wt))): -0.08
[4]
  Kd: 0.19 nM

## D3H44 Fab heterodimer, H1 K145T_Q179E / L1 S131K (H1L1 of LCCA set 9082)
[6]
  Kd: 0.16 nM
[7]
  Change in KD with respect to wild type (-(log(KD design) - log(KD wt))): -0.01
